Laboratory results reported in patent publication US20150322137A1 (EVEC, published 2015).

B1: EV046141 (antibody, human IgG1, lambda, V domains shown)
VH: QVQLVQSGAEVKKPGASVKVSCKASGYTFADYYIHWLRQAPGQGLEWLGRINPSNSRTTYPQKFQGRVTVTRDTSTSTVYMELSSLRSADTAVYYCARDGLRMGYYYMDVWGKGTTVTVSS
VL: QSVLTQPPSVSGAPGQRVTISCTGSSSNIGAGYDVHWYQQIPGTAPKLLIFGNYNRPSGVPDRFSASKSGTSASLAITGLQAEDEAHYYCQSYDTTLDGAVFGGGTKLTVLG
B2: EV046135 (antibody, human IgG1, lambda, V domains shown)
VH: QEQLVESGGDLVKPGGSLRITCAASGFTLSGYALVWVRQAPGRGLEWIADITASSTYINYAASVKGRFTISRDNAQSSLFLQMSSLRADDTGVYFCARLPHLPGFFDLWGRGTLVSVSS
VL: QSVLTQPPSVSGAPGQRVTISCTGNSSNIGAGYDVNWYQHLPGTAPKLLISVNTNRPSGVPDRFSGSMSGTSASLAITGLQAEDEADYYCQSYDRRLSGYVFGTGTKVTVLG
B3: EV046142 (antibody, human IgG1, lambda, V domains shown)
VH: QVQLVQSGAEVKKPGSSVRVSCKASGGTFSTYGINWVRQARGQGLEWMGTVIPTFEKTYYAQGFQGRVTIAADGSKNTVYMELRRLTSEDSAIYFCTRFFTPYCSGGSCYLDLWGPGTLVTVSS
VL: QSVLTQPPSVSGAPGQSVTISCAGSSSNIGAGYDVHWYQHLPGTAPRLLIYSNTNRPSGVPDRFSGSKSGASASLAITGLQAEDEADYYCQSYDSGVVFGGGTKLTVLR
B4: EV046136 (antibody, human IgG1, kappa, V domains shown)
VH: QVQLVQSGAEMKKPGASVKVSCKASGYTFTDYFIHWVRQAPGQGLEWMGWVNPNSGATNYAQKFQGRVTMTGDTSLSAAYVDLSRLSSDDSAVYYCARDRGLGISSTRNDAFDIWGQGTTVTVSS
VL: DIQLTQSPSSLSASVGDRVTITCQPSQGIRNFLNWYQQKPGKAPNLLIYDASNLETGVASRFSGSGSGTHFTLTISSLQPEDIATYFCQQYHSLPLTFGGGTKVEIKR
B5: EV046143 (antibody, human IgG1, kappa, V domains shown)
VH: QVQLVQSGAEVQKPGSSVKVSCKTSGDTFNNYALSWVRQAPGQGPEWMGRIIPLVEMANYAQKFQGRVTITADKSTTTIYMELSSLRSEDTAMYYCARDGYQGGFPYFFDSWGQGTLVTVSS
VL: EVVLTQSPGTLSLSPGERATLSCRASQSVSNYLAWYQQKPGQAPRLLISAASSRATGIPDRFGGSGSGADFTLTISRLEPEDFAVYYCQQYGFSPGTFGQGTKVEIRR
B6: EV046147 (antibody, human IgG1, lambda, V domains shown)
VH: QVQLVQSGAEVKKPGASVKVSCKASGYTFSVYGISWVRQAPGHGLEWMGWISAYNGDRGYAQKVQGRITMTTDTSASTAYMELRSLTSDDTAVYYCATTSSGVPGIYWGQGSLVTVSS
VL: SYALVQPPSVSVSPGQTARITCFGPALPKKYAYWYQHKSGQAPMLVIYEDTKRPSGIPQRFSGSTSGATATLTIRGAQVEDEADYYCYSTDSSGHERVFGGGTKLTVLG

target: T1, F protein of human metapneumovirus strain JPS02-76 (type B1), on infectious virus (human metapneumovirus, strain JPS02-76 …, UniProt Q6WB98 19-539); experiment: cell-based or functional assay

| Binder | IC50, cell-to-cell spread inhibitory activity (LLC-MK2 cells stably expressing TMPRSS2) | IC90, cell-to-cell spread inhibitory activity (LLC-MK2 cells stably expressing TMPRSS2) |
| --- | --- | --- |
| B1 | 0.0363 µg/mL | 0.171 µg/mL |
| B2 | 0.0308 µg/mL | 0.231 µg/mL |
| B3 | 0.0123 µg/mL | 0.0664 µg/mL |
| B4 | 0.0522 µg/mL | 0.212 µg/mL |
| B5 | 0.0572 µg/mL | 0.886 µg/mL |
| B6 | 0.114 µg/mL | 0.506 µg/mL |

target: T1, F protein of human metapneumovirus …; experiment: cell-based or functional assay; remark: another data set of the same source

| Binder | IC50, neutralizing activity (hMPV infection of LLC-MK2 cells) |
| --- | --- |
| B1 | 0.74 µg/mL |
| B2 | 0.37 µg/mL |
| B3 | 0.42 µg/mL |
| B4 | 0.31 µg/mL |
| B5 | 0.46 µg/mL |
| B6 | 0.39 µg/mL |

target: T2, F protein of human metapneumovirus strain JPS03-180 (type A1), on infectious virus (human metapneumovirus, strain JPS03-180 …); experiment: cell-based or functional assay

| Binder | IC50, neutralizing activity (hMPV infection of LLC-MK2 cells) |
| --- | --- |
| B1 | 0.2 µg/mL |
| B2 | 0.35 µg/mL |
| B3 | 0.22 µg/mL |
| B4 | 0.29 µg/mL |
| B5 | 0.13 µg/mL |
| B6 | 0.31 µg/mL |

target: T3, F protein of human metapneumovirus strain JPS05-21 (type B2), on infectious virus (human metapneumovirus, strain JPS05-21 …); experiment: cell-based or functional assay

| Binder | IC50, neutralizing activity (hMPV infection of LLC-MK2 cells) |
| --- | --- |
| B1 | 0.44 µg/mL |
| B2 | 0.22 µg/mL |
| B3 | 0.22 µg/mL |
| B4 | 0.46 µg/mL |
| B5 | 0.27 µg/mL |
| B6 | 0.27 µg/mL |

target: T1, F protein of human metapneumovirus …; experiment: cell-based or functional assay; remark: another data set of the same source

| Binder | IC60, neutralizing activity (hMPV infection of LLC-MK2 cells; GraphPad Prism 6) |
| --- | --- |
| B1 | 0.883 µg/mL |
| B2 | 0.571 µg/mL |
| B3 | 0.641 µg/mL |
| B4 | 0.419 µg/mL |
| B5 | 0.627 µg/mL |
| B6 | 0.514 µg/mL |

target: T2, F protein of human metapneumovirus …; experiment: cell-based or functional assay; remark: another data set of the same source

| Binder | IC60, neutralizing activity (hMPV infection of LLC-MK2 cells; GraphPad Prism 6) |
| --- | --- |
| B1 | 0.276 µg/mL |
| B2 | 0.44 µg/mL |
| B3 | 0.243 µg/mL |
| B4 | 0.358 µg/mL |
| B5 | 0.186 µg/mL |
| B6 | 0.406 µg/mL |

target: T4, F protein of human metapneumovirus strain JPS03-178 (type A2), on infectious virus (human metapneumovirus, strain JPS03-178 …); experiment: cell-based or functional assay

| Binder | IC60, neutralizing activity (hMPV infection of LLC-MK2 cells; GraphPad Prism 6) |
| --- | --- |
| B1 | 2.18 µg/mL |
| B2 | 0.0471 µg/mL |
| B3 | 0.0971 µg/mL |
| B4 | 0.358 µg/mL |
| B5 | 0.0266 µg/mL |
| B6 | 2.06 µg/mL |

target: T3, F protein of human metapneumovirus …; experiment: cell-based or functional assay; remark: another data set of the same source

| Binder | IC60, neutralizing activity (hMPV infection of LLC-MK2 cells; GraphPad Prism 6) |
| --- | --- |
| B1 | 0.571 µg/mL |
| B2 | 0.268 µg/mL |
| B3 | 0.366 µg/mL |
| B4 | 0.67 µg/mL |
| B5 | 0.363 µg/mL |
| B6 | 0.298 µg/mL |

target: T2, F protein of human metapneumovirus …; experiment: cell-based or functional assay; remark: another data set of the same source

| Binder | IC50, neutralizing activity (hMPV infection of LLC-MK2 cells; GraphPad Prism 6) |
| --- | --- |
| B1 | 0.213 µg/mL |
| B2 | 0.348 µg/mL |
| B3 | 0.212 µg/mL |
| B4 | 0.318 µg/mL |
| B5 | 0.157 µg/mL |
| B6 | 0.326 µg/mL |

target: T4, F protein of human metapneumovirus …; experiment: cell-based or functional assay; remark: another data set of the same source

| Binder | IC50, neutralizing activity (hMPV infection of LLC-MK2 cells; GraphPad Prism 6) |
| --- | --- |
| B1 | 2.11 µg/mL |
| B2 | 0.0316 µg/mL |
| B3 | 0.0614 µg/mL |
| B4 | 0.318 µg/mL |
| B5 | 0.0198 µg/mL |
| B6 | 1.98 µg/mL |

target: T3, F protein of human metapneumovirus …; experiment: cell-based or functional assay; remark: another data set of the same source

| Binder | IC50, neutralizing activity (hMPV infection of LLC-MK2 cells; GraphPad Prism 6) |
| --- | --- |
| B1 | 0.524 µg/mL |
| B2 | 0.213 µg/mL |
| B3 | 0.273 µg/mL |
| B4 | 0.537 µg/mL |
| B5 | 0.272 µg/mL |
| B6 | 0.253 µg/mL |

target: T1, F protein of human metapneumovirus …; experiment: cell-based or functional assay; remark: another data set of the same source

| Binder | IC90, neutralizing activity (hMPV infection of LLC-MK2 cells; GraphPad Prism 6) |
| --- | --- |
| B1 | 2.18 µg/mL |
| B2 | 1.44 µg/mL |
| B3 | 1.57 µg/mL |
| B4 | 0.895 µg/mL |
| B5 | 0.735 µg/mL |
| B6 | 1.18 µg/mL |

target: T2, F protein of human metapneumovirus …; experiment: cell-based or functional assay; remark: another data set of the same source

| Binder | IC90, neutralizing activity (hMPV infection of LLC-MK2 cells; GraphPad Prism 6) |
| --- | --- |
| B1 | 0.863 µg/mL |
| B2 | 1.24 µg/mL |
| B3 | 0.443 µg/mL |
| B4 | 0.605 µg/mL |
| B5 | 0.402 µg/mL |
| B6 | 1.07 µg/mL |

target: T4, F protein of human metapneumovirus …; experiment: cell-based or functional assay; remark: another data set of the same source

| Binder | IC90, neutralizing activity (hMPV infection of LLC-MK2 cells; GraphPad Prism 6) |
| --- | --- |
| B1 | 2.52 µg/mL |
| B2 | 0.277 µg/mL |
| B3 | 0.738 µg/mL |
| B4 | 0.605 µg/mL |
| B5 | 0.0967 µg/mL |
| B6 | 2.41 µg/mL |

target: T3, F protein of human metapneumovirus …; experiment: cell-based or functional assay; remark: another data set of the same source

| Binder | IC90, neutralizing activity (hMPV infection of LLC-MK2 cells; GraphPad Prism 6) |
| --- | --- |
| B1 | 0.836 µg/mL |
| B2 | 0.748 µg/mL |
| B3 | 1.35 µg/mL |
| B4 | 1.78 µg/mL |
| B5 | 1.29 µg/mL |
| B6 | 0.612 µg/mL |
